In patent US20200199177:

Assays:
(AcDEVD)K-pNA = tested on: T1, (AcDEVD)K-pNA
T1 sequence: DEVD

(AcDVED)K-pNA = tested on: T2, (AcDVED)K-pNA
T2 sequence: DVED

AcDEVD-pNA = tested on: T3, AcDEVD-pNA
T3 sequence: DEVD

(AcIEPD)K-pNA = tested on: T4, (AcIEPD)K-pNA
T4 sequence: IEPD

AcIEPD-pNA = tested on: T5, AcIEPD-pNA
T5 sequence: IEPD

(AcAAF)K-pNA = tested on: T6, (AcAAF)K-pNA
T6 sequence: AAFK

CAAK(F)-diamino-pNA = tested on: T7, CAAK(F)-diamino-pNA
T7 sequence: CAAK

(AcFG)K-pNA [1] = tested on: T8, (AcFG)K-pNA
T8 sequence: FGK

(AcFG)K-pNA [2] = biological target: T9, (AcFG)K-pNA (not fully specified)
T9 chain: FGK

## Caspase 3
(AcDEVD)K-pNA
  absorbance increase at 405 nm (pNA release), 125 uM substrate first with caspase-3 then with trypsin, over 60 minutes: 0.1±0.006 AU
  pNA release relative to the commercial substrate AcDEVD-pNA: pNA release from our substrate corresponded to 83% of the release from the commercial substrate
(AcDVED)K-pNA
  pNA release with trypsin and caspase 3: no pNA release occurred when (AcDVED)K-pNA (SEQ ID NO: 2) was incubated with trypsin and caspase 3
AcDEVD-pNA
  pNA release on caspase 3 digestion: both substrates are digested efficiently by caspase 3

## Caspase 8
(AcDEVD)K-pNA
  absorbance increase at 405 nm, 500 uM substrate with caspase 8 for 24 hours before adding trypsin: did not result in a significant absorbance increase
(AcIEPD)K-pNA
  absorbance increase at 405 nm (pNA release) with caspase 8 and trypsin: little to no absorbance increase in the presence of caspase 8 and trypsin
AcDEVD-pNA
  caspase 8 activity on single enzyme substrate (absorbance, pNA release): cleaved as expected
AcIEPD-pNA
  caspase 8 activity on single enzyme substrate (absorbance, pNA release): cleaved as expected

## Chymotrypsin
(AcAAF)K-pNA
  absorbance increase at 405 nm (pNA release), 50 uM substrate with chymotrypsin and trypsin, after five hours: 0.039±0.003 AU
  absorbance increase at 405 nm (pNA release), 100 uM substrate with chymotrypsin and trypsin: 0.070±0.002 AU
  absorbance increase at 405 nm (pNA release), 200 uM substrate with chymotrypsin and trypsin: 0.147±0.002 AU
CAAK(F)-diamino-pNA
  pNA release (absorbance at 405 nm), 2 mM peptide with trypsin and/or chymotrypsin, 90 minutes at 37 C: 55% of the theoretical pNA was released after 90 minutes of incubation

## Trypsin
(AcAAF)K-pNA
  absorbance increase at 405 nm (pNA release), 100 uM peptide with trypsin only: a minimal absorbance increase (0.016±0.002 AU) was observed when 100 µM peptide was incubated with trypsin only
(AcDEVD)K-pNA
  absorbance increase at 405 nm (pNA release) with trypsin only: In the presence of trypsin or caspase 3 only, no absorbance increase was observed as expected
(AcFG)K-pNA [1]
  pNA release (absorbance at 405 nm) with trypsin only: no absorbance increase was observed when the substrate was incubated with each enzyme separately

B1: Papain (protein)
chain: IPEYVDWRQKGAVTPVKNQGSCGSCWAFSAVVTIEGIIKIRTGNLNEYSEQELLDCDRRSYGCNGGYPWSALQLVAQYGIHYRNTYPYEGVQRYCRSREKGPYAAKTDGVRQVQPYNEGALLYSIANQPVSVVLEAAGKDFQLYRGGIFVGPCGNKVDHAVAAVGYGPNYILIKNSWGTGWGENGYIRIKRGTGNSYGVCGLYTSSFYPVKN
(AcFG)K-pNA [2]
  pNA release (absorbance at 405 nm) with papain and trypsin: In the presence of papain and trypsin, pNA release from the substrate was observed to be substrate dependent
